{
  "source": "patent US20160348147",
  "tested_on": "PSA peptide M(GVGVP)60GDGQSSIYSQTEEQQDDEEG",
  "data": [
    {"substance": "Prostate Specific Antigen (PSA), active", "values": [
      {"measurement": "optical density of 100 µM PSA peptide before and after 2 h with 20 ng/mL active PSA at 37 C", "result": "a distinct difference in the presence of active PSA, with an increase in optical density of the solution above the transition temperature after incubation with enzyme"}
    ]}
  ]
}
